Positions count from the first letter of the chain named. Where two headings read alike, the source gives them in different places.
What was measured:
[1] = target: T1, human prostate specific membrane antigen (PSMA) (human, UniProt Q04609 1-750); experiment: flow cytometry, direct binding to LNCaP cells (relative cell binding, MFI, against concentration in nM); the table under the plot labels the half-maximal concentration IC50; unit taken from the concentration axis
T1 construct: Endogenous PSMA on the human prostate cancer cell lines LNCaP, 22Rv1, MDA-PCA-2B and VCAP; also called human PSMA
T1 sequence (Q04609 whole entry): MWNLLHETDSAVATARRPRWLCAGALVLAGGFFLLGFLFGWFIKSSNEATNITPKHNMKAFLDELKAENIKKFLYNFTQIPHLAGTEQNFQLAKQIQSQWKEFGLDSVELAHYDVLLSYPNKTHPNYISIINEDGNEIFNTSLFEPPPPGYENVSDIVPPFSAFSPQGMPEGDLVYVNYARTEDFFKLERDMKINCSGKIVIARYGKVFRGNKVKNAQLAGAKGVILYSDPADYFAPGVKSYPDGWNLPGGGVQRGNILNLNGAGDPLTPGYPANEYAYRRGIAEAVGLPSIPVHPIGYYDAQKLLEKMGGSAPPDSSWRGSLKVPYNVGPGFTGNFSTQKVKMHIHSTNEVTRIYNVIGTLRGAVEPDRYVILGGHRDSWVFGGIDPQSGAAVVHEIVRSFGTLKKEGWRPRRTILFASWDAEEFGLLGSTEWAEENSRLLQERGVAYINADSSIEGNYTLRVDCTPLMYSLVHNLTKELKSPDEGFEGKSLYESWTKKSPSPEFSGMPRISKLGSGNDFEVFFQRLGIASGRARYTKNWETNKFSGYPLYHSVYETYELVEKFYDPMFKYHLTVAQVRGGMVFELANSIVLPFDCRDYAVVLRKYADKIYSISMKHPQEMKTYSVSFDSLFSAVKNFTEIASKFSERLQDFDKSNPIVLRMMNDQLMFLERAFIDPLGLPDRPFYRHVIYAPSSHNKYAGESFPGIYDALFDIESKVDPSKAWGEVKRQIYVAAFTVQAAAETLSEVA

[2] = target: T1, human prostate specific membrane …; experiment: as above; remark: listed apart in the source
[3] = target: T1, human prostate specific membrane …; experiment: binding to LNCaP cells (flow cytometry, FIG. 8C)
[4] = target: T1, human prostate specific membrane …; experiment: flow cytometry, direct binding to LNCaP cells (relative cell binding, MFI, against concentration in nM); the table under the plot labels the half-maximal concentration IC50; unit taken from the concentration axis; remark: listed apart in the source
[5] = target: T2, cynomolgus monkey PSMA-Fc fusion (human; cynomolgus monkey, PSMA is a glycosylated homodimer. Only one subunit is given.); experiment: binding to cynoPSMA-Fc; method not described
T2 construct: also called cyno PSMA Fc; cynoPSMA-Fc; not shown: Human IgG1 Fc domain, which sits N-terminal of the PSMA ECD, and the junction with the Prescission protease site
T2 chain: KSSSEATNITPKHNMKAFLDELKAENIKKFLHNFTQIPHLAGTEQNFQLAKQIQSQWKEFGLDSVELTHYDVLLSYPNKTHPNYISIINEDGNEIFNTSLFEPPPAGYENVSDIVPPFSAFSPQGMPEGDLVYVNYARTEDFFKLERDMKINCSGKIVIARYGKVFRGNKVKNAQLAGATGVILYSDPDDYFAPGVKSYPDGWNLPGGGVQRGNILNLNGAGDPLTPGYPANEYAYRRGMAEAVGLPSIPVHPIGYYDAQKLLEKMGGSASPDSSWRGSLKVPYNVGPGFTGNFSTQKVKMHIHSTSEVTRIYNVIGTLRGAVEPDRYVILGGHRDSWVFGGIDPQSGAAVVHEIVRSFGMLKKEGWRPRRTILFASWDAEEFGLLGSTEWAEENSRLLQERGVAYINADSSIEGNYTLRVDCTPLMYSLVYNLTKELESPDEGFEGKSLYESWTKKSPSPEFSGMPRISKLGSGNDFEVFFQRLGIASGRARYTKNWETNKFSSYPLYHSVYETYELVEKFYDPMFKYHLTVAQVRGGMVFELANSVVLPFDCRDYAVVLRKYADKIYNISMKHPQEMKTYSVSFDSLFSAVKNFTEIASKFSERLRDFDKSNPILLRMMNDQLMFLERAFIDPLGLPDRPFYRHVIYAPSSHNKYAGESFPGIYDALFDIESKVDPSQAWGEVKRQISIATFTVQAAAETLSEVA

[6] = target: T2, cynomolgus monkey PSMA-Fc fusion; experiment: binding to cynoPSMA-Fc; method not described
[7] = target: T1, human prostate specific membrane …; experiment: binding to LNCaP cells (flow cytometry, FIG. 9C)

B1: P233FR9_H10 PSMA binding FN3 domain (designed binder)
chain: LPAPKNLVVSRVTEDSARLSWTAPDAAFDSFAIGYWEWDDDGEAIVLTVPGSERSYDLTGLKPGTEYPVYIAGVKGGQWSFPLSAIFTT
notes: His-tagged, expressed in E. coli; also called H10 centyrin; not shown: C-terminal poly-histidine tag
- IC50 [1]: 0.598 nM
- IC50 [2]: 0.598 nM
- Kd [3]: ~0.003 nM
- IC50 [4]: 0.598 nM
- Kd [5]: 692 nM

B2: P233FR9_H10_v18 (designed binder)
chain: B1 chain with G34A, E53C
notes: Optimized Centyrin; not shown: C-terminal poly-histidine tag
- IC50 [4]: 0.608 nM

B3: P258AR6P1071_D02 (designed binder)
chain: LPAPKNLVVSRVTEDSARLSWAIDEQRDWFESFLIQYQESEKVGEAIVLTVPGSERSYDLTGLKPGTEYTVSIYGVYHVYRSNPLSAIFTT
notes: not shown: C-terminal poly-histidine tag
- IC50 [1]: 1.32 nM
- Kd [6]: 0.1 nM
- Kd [7]: ~0.025 nM

— patent US20230183314A1 (ARO BIOTHERAPEUTICS, published 2023)
